Data as given in patent publication US10227388B2, “Peptides and combination of peptides for use in immunotherapy against non-small cell lung cancer and other cancers” (immatics biotechnologies GmbH, priority 2015, dated 2019).

Target: HLA-A*02:01 (Homo sapiens, UniProt P04439, D140Y/D185E/D98H/E176V/E277Q/G131W/G231S/I119V/I121R/I166T/I218V/L300P/L318F/N151K/N90K/P208A/P217A/Q86G/Q94H/R138H/R169H/T345S)
Assay: MHC binding assay (UV-ligand exchange, ELISA, peptide exchange yield)
Conditions: binding of HLA-class I restricted peptides to HLA-A*02:01
Summary of the method: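 Exchange yield was quantified as stabilized β2m-containing complex: monomers diluted 100-fold bound to streptavidin-coated wells, probed with HRP-conjugated anti-β2m, read at 450 nm after TMB. Complexes had been generated by UV cleavage of a photolabile ligand and replacement with the candidate peptide.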

Row | Substance | Peptide exchange (MHC class I binding score, peptide exchange yield)
1 | 240 (ILLEQAFYL; listed as Homo sapiens) [compound 240] | ″+++″ (≥50% = +++)
2 | 241 (SLVEVNPAYSV; listed as Homo sapiens) [compound 241] | ″+++″ (≥50% = +++)
3 | 242 (AIAYILQGV; listed as Homo sapiens) [compound 242] | ″++″ (≥20% = ++)
4 | 243 (LLLNELPSV; listed as Homo sapiens) [compound 243] | ″+++″ (≥50% = +++)
5 | 244 (SLFGGTEITI; listed as Homo sapiens) [compound 244] | ″+++″ (≥50% = +++)
6 | 245 (SMIDDLLGV; listed as Homo sapiens) [compound 245] | ″+++″ (≥50% = +++)
7 | 246 (LLWEVVSQL; listed as Homo sapiens) [compound 246] | ″+++″ (≥50% = +++)
8 | 248 (FLFPNQYVDV; listed as Homo sapiens) [compound 248] | ″+++″ (≥50% = +++)
9 | 249 (LLDGFLVNV; listed as Homo sapiens) [compound 249] | ″+++″ (≥50% = +++)
10 | 250 (ALSEEGLLVYL; listed as Homo sapiens) [compound 250] | ″+++″ (≥50% = +++)
11 | 251 (ALYTGFSILV; listed as Homo sapiens) [compound 251] | ″++″ (≥20% = ++)
12 | 252 (LLIGTDVSL; listed as Homo sapiens) [compound 252] | ″+++″ (≥50% = +++)
13 | 253 (GLDAATATV; listed as Homo sapiens) [compound 253] | ″++″ (≥20% = ++)
14 | 254 (TLLAFIMEL; listed as Homo sapiens) [compound 254] | ″+++″ (≥50% = +++)
15 | 255 (VLASYNLTV; listed as Homo sapiens) [compound 255] | ″+++″ (≥50% = +++)
16 | 256 (FLPPEHTIVYI; listed as Homo sapiens) [compound 256] | ″+++″ (≥50% = +++)
17 | 257 (SIFSAFLSV; listed as Homo sapiens) [compound 257] | ″+++″ (≥50% = +++)
18 | 258 (ELAERVPAI; listed as Homo sapiens) [compound 258] | ″++″ (≥20% = ++)
19 | 261 (YVLEFLEEI; listed as Homo sapiens) [compound 261] | ″++″ (≥20% = ++)
20 | 262 (LLWGDLIWL; listed as Homo sapiens) [compound 262] | ″+++″ (≥50% = +++)
21 | 263 (LLVSNLDFGV; listed as Homo sapiens) [compound 263] | ″+++″ (≥50% = +++)
22 | 264 (SLQEQLHSV; listed as Homo sapiens) [compound 264] | ″+++″ (≥50% = +++)

Row | Substance | Peptide exchange (MHC class I binding score, peptide exchange yield)
23 | 265 (LLFGGTKTV; listed as Homo sapiens) [compound 265] | ″++″ (≥20% = ++)
24 | 266 (KITDTLIHL; listed as Homo sapiens) [compound 266] | ″+++″ (≥50% = +++)
25 | 267 (ALQDFLLSV; listed as Homo sapiens) [compound 267] | ″+++″ (≥50% = +++)
26 | 269 (RVLEVGALQAV; listed as Homo sapiens) [compound 269] | ″++″ (≥20% = ++)
27 | 270 (LLLDEEGTFSL; listed as Homo sapiens) [compound 270] | ″++″ (≥20% = ++)
28 | 271 (LVYPLELYPA; listed as Homo sapiens) [compound 271] | ″+++″ (≥50% = +++)
29 | 272 (ALGNTVPAV; listed as Homo sapiens) [compound 272] | ″+++″ (≥50% = +++)
30 | 273 (NLFQSVREV; listed as Homo sapiens) [compound 273] | ″++″ (≥20% = ++)
31 | 274 (SLLFSLFEA; listed as Homo sapiens) [compound 274] | ″++″ (≥20% = ++)
32 | 275 (YLVYILNEL; listed as Homo sapiens) [compound 275] | ″++″ (≥20% = ++)
33 | 276 (ALFTFSPLTV; listed as Homo sapiens) [compound 276] | ″+++″ (≥50% = +++)
34 | 277 (LLPPLESLATV; listed as Homo sapiens) [compound 277] | ″++″ (≥20% = ++)
35 | 278 (QLLDVVLTI; listed as Homo sapiens) [compound 278] | ″++″ (≥20% = ++)
36 | 279 (ALWGGTQPLL; listed as Homo sapiens) [compound 279] | ″++″ (≥20% = ++)
37 | 280 (VLPDPEVLEAV; listed as Homo sapiens) [compound 280] | ″+++″ (≥50% = +++)
38 | 281 (ILRESTEEL; listed as Homo sapiens) [compound 281] | ″+++″ (≥50% = +++)
39 | 282 (LLADVVPTT; listed as Homo sapiens) [compound 282] | ″+++″ (≥50% = +++)
40 | 284 (ILLSQTTGV; listed as Homo sapiens) [compound 284] | ″+++″ (≥50% = +++)
41 | 285 (QLLHVGVTV; listed as Homo sapiens) [compound 285] | ″+++″ (≥50% = +++)
42 | 286 (YLFPGIPEL; listed as Homo sapiens) [compound 286] | ″+++″ (≥50% = +++)
43 | 287 (FLNEFFLNV; listed as Homo sapiens) [compound 287] | ″+++″ (≥50% = +++)
44 | 288 (NLINEINGV; listed as Homo sapiens) [compound 288] | ″+++″ (≥50% = +++)

Row | Substance | Peptide exchange (MHC class I binding score, peptide exchange yield)
45 | 289 (VLLEIEDLQV; listed as Homo sapiens) [compound 289] | ″++++″ (≥75% = ++++)
46 | 295 (VLDRESPNV; listed as Homo sapiens) [compound 295] | ″+++″ (≥50% = +++)
47 | 296 (FMEGAIIYV; listed as Homo sapiens) [compound 296] | ″+++″ (≥50% = +++)
48 | 297 (VLADIELAQA; listed as Homo sapiens) [compound 297] | ″+++″ (≥50% = +++)
49 | 298 (VMITKLVEV; listed as Homo sapiens) [compound 298] | ″+++″ (≥50% = +++)
50 | 299 (YLLETSGNL; listed as Homo sapiens) [compound 299] | ″+++″ (≥50% = +++)
51 | 300 (ALLGQTFSL; listed as Homo sapiens) [compound 300] | ″+++″ (≥50% = +++)
52 | 301 (FLVEDLVDSL; listed as Homo sapiens) [compound 301] | ″+++″ (≥50% = +++)
53 | 302 (ALLQEGEVYSA; listed as Homo sapiens) [compound 302] | ″+++″ (≥50% = +++)
54 | 303 (AILPQLFMV; listed as Homo sapiens) [compound 303] | ″++++″ (≥75% = ++++)
55 | 304 (MTLGQIYYL; listed as Homo sapiens) [compound 304] | ″+++″ (≥50% = +++)
56 | 305 (SIANFSEFYV; listed as Homo sapiens) [compound 305] | ″++++″ (≥75% = ++++)
57 | 306 (ALVNVQIPL; listed as Homo sapiens) [compound 306] | ″+++″ (≥50% = +++)
58 | 307 (ALPVSLPQI; listed as Homo sapiens) [compound 307] | ″+++″ (≥50% = +++)
59 | 308 (SQYSGQLHEV; listed as Homo sapiens) [compound 308] | ″+++″ (≥50% = +++)
60 | 309 (GLFDGVPTTA; listed as Homo sapiens) [compound 309] | ″+++″ (≥50% = +++)
61 | 310 (FLVDTPLARA; listed as Homo sapiens) [compound 310] | ″++++″ (≥75% = ++++)
62 | 311 (RLYTGMHTV; listed as Homo sapiens) [compound 311] | ″+++″ (≥50% = +++)
63 | 312 (IISDLTIAL; listed as Homo sapiens) [compound 312] | ″+++″ (≥50% = +++)
64 | 313 (VLFDDELLMV; listed as Homo sapiens) [compound 313] | ″+++″ (≥50% = +++)
65 | 314 (ALIAEGIALV; listed as Homo sapiens) [compound 314] | ″+++″ (≥50% = +++)
66 | 315 (YLQDVVEQA; listed as Homo sapiens) [compound 315] | ″+++″ (≥50% = +++)
